{"source": "patent US20150111836", "proteins": {"B1": {"name": "purified recombinant A3G-His6 (human APOBEC3G with C-terminal Myc-His6 tag, expressed in 293T cells) (protein)", "chain": "MKPHFRNTVERMYRDTFSYNFYNRPILSRRNTVWLCYEVKTKGPSRPPLDAKIFRGQVYSELKYHPEMRFFHWFSKWRKLHRDQEYEVTWYISWSPCTKCTRDMATFLAEDPKVTLTIFVARLYYFWDPDYQEALRSLCQKRDGPRATMKIMNYDEFQHCWSKFVYSQRELFEPWNNLPKYYILLHIMLGEILRHSMDPPTFTFNFNNEPWVRGRHETYLCYEVERMHNDTWVLLNQRRGFLCNQAPHKHGFLEGRHAELCFLDVIPFWKLDLDQDYRVTCFTSWSPCFSCAQEMAKFISKNKHVSLCIFTARIYDDQGRCQEGLRTLAEAGAKISIMTYSEFKHCWDTFVDHQGCPFQPWDGLDEHSQDLSGRLRAILQNQEN"}}, "molecular_target": "purified recombinant N-terminal His6 tagged HIV-1 HXBII Vif protein (E. coli)", "data": [{"protein": "B1", "values": [{"measurement": "A3G-mediated deamination of the ss-deoxyoligonucleotide substrate", "result": "Vif inhibits A3G deaminase activity in a dose-dependent manner"}]}]}
